Source: the RNAGym collection of RNA variant scans (doi:10.1073/pnas.2313332121)

B1: TPR t1 (parent)
chain: GACCAAUCUGCCCUCAGAGCUCGAGAACAUCUUCGGAUGCAGAGGAGGCAGGCUUCGGUGGCGCGAUAGCGCCAACGUCCUCAACCUCCAAUGCAUCCCACCACAUGAUGAUGCCUGAAGAGCCUUGGUUUUUUG

Variants of: B1
Test: polymerase ribozyme fitness, log enrichment relative to wild type (log ratio); higher = more active; in vitro selection for triplet polymerase activity
In short: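 A single round of triplicate in vitro selection, including frozen incubation at −7 °C, was applied to PCR-built, transcribed mutant libraries of each subunit of a heterodimeric triplet polymerase ribozyme. Illumina sequencing of input and output libraries retained genotypes with ≥10 input reads and ≥1 read per output. Fitness is the base-2 logarithm of genotype enrichment divided by wild-type enrichment, from inverse-variance-weighted replicate averages.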

Point of comparison: GUCCAAUCUGCCCUCAGAGCUCGAGAACAUCUUCGGAUGCAGAGGAGGCAGGCCUCGGUGGCGCGAUAGCGCCAACGUCCUCAACCUCCAAUGCAUCCCACCACAUGAUGAUGCAUGAAGAGCCUUGGUUUUUUG [A2U U54C C115A], “polymerase ribozyme fitness (log ratio)” value -2.65. Against it:
- GUCCAAUCUGCCCUCAGAGCUCGAGAACAUCUUCGGAUGCAGAGGAGGCAGGCUUCGGUGGCGCGAUAGCGCCAACGUCCUCAACCUCCAAUGCAUCCCACUACAUGAUGAUACCUGAAGAGCCUUGGAUUUUUG [A2U C102U G113A U129A] — lower, -2.88
- GACCAAUCUGCCCUCAGAGCUCGAGAACAUCUUCGGCUGCAGAGGAGGCAGGCUUCGGUGGCGCGAUAGCGCCAACGUCCUCAACCUCCAAUGCAUCCCACCCCAUGAUGAUGCCUGAAGAGCCUUGGUUUUUUG [A37C A103C] — lower, -4.98
- GACCAAUCUGCCCUCAGAGCUCGAGAACAUCUUCGGAUGCAGAGGAGGCAGGCUUCGGUGGCGCGAUAGCGCCAACGUCCUCAACCUCCAAUGCAUCCCAUCACAAGAUGAUGCCUGAAGAGCCUUGGUUUUUUG [C101U U106A] — higher, -0.286
- GACCAAUCUGCCCUCAGAGCUCGAGAACAUCAUCGGAUGCAGAGGAGGCAGGCUUCGGUGGCGCGAUAGCGCCAACGUCCUCAACCUGCAAUGCAUCCCACCACAUGAUGAUGCCUGAAGAGCCAUGGUUUUUUG [U32A C88G U125A] — lower, -5.98
- GACCAAUCUGCCCUCAGAGCUCGAGAACAUCUUCGGAUGCAGUGGAGGCAGGCUACGGUGGCGCGAUAGCGACAACGUCCUCAACCUCCAAUGCAUCCCACCACAUGAUGAUGCCUGAAGAGCCUUAGUUUUUUG [A43U U55A C72A G127A] — within 0.2 log units, -2.75
- GACCAAUCUGCCCUCAGAGCUCGAGAACAUCUUCGGAUGCAGAGGAGGCAGGCUUCGGUGGCGCGAUACCGCCAACGUCCUCAACCUCCAAUGCAUCCCACCACAUGAUGAUGCCUGAAGAUCCUUGGUCUUUUG [G69C G122U U130C] — higher, -1.15
- GACCAAUCUGCCCUCAGAGCUCGAGAACAUCUUCGGAUGCUGAGGAGGCAGGCUUAGGUGGCGCGAUAGCGCCAACGUCCUCAACCUCCAAUGCAUCCCACCACAUGAUGAUGCCUGAAGAGCCUUGGUUUUUUG [A41U C56A] — higher, -1.52
- GACCAACCUGCCCUCAGAGCUCGAGAACAUCUUCGGAUGCAGAAGAGGCAGGCUUCGGUGGCGCGAUAGCGCCAACGUCCUCAACCUCCAAUGCAUCCCACCACAUGAUGAUGCCUGAAGAGCCUUGGUUUUUUG [U7C G44A] — higher, -0.534
- GACCAAUCUGCCCUCAGAGCUCGAGAACAUCUUCGGAUGCAGAGGAGGCAGGCUUCGGUGACGCGAUAGCGCCAACGUCCUCAACCUGCAAUGCAUCCCACCACAUGAUGAUGCCUGAAGAGCCUUGGUUUUUUG [G61A C88G] — higher, -0.136
- GACCAAUCUGCUCGCAGAGCUCGAGAACAUCUUCGGAUGCAGAGGAGGCAGGCUUCGGUGGCGCGAUAGCGCCAACGUUCUCAACCUCCAAUGCAUCCCACCACAUGAUGAUGCCUGAAGAGCCUUGGUUUUUUG [C12U U14G C79U] — higher, 0.109
- GACCAAUCUGCUCUCAGAGCUCGAGAACAUCUUCGGAUGCAGAGGAGGCAGGCUUCGGUGGCGCGAUAGCGCCAACGUCCUCAACCUCCAAUGCAUCCCACCACAUGAAGAUGCCUGAAGAGCCUUGGUUUUUUG [C12U U109A] — lower, -3.34
- GACCAAUCUGCCCUCAGAGCUCGAGAACAUCUUCGGAUGCAGAGGAGCCAGGCUUCGGUGGCGCGAUAGCUCCAACGUCCUCAACCUCCAAUGCAUCCCACCACAUGAUGAUGCCUGAAGAGCCUUGGUUUUUUG [G48C G71U] — within 0.2 log units, -2.47
- GACCAAUCUGCCCUCAGAGUUCGAGAACAUCUUCGGAUGCAGAGGAGGCAGGCUUCGGUGACGCGAUAGCGCCAACGUCCUCAACCUCCAAUGCAUCCCACCACAUGAUGAUGCCUGAAGAGCAUUGGUUUUUUC [C20U G61A C124A G135C] — higher, 0.689
- GACUAAUCUGCCCUCAGAGCUCGAGAACAUCUUCGGAUGCAGAUGAGGCAGGUUUCGGUGGCGCGAUAGCGCCAACGUCCUCAACGUCCAAUGCAUCCCACCACAUGAUGAUGCCUGAAGAGCCUUGGUUUUUUG [C4U G44U C53U C86G] — lower, -3.52
- GACCAAUCUGCCCUCAGAGCUCGAGAACAUCUUCGGAUGCAGAGGAGGCAGGCUUCGGUGGCGCGAUAGCGCCAACGUCCUCAACCUCCAAUGCAUCCCACCACUUGAUGAUACCUGAAGAGCCUUGGUUUUUUG [A105U G113A] — lower, -4.72
- GACCAAGCUGCCCUCAGAGCUCGAGAACAUCUUCGGAUGCAGAGGAGGCAGGCUACGAUGGCUCGAUAGCGCCAACGUCCUCAACCUCCAAUGCAUCACACCACUUGAUGAUGCCUGAAAAGCCUUGGUUUUUUG [U7G U55A G58A G63U C98A A105U G120A] — lower, -5.94
- GACCAAUCUGCCCUCAGAGCUCGAGAACAUCUUCGGAUGCAGAGGAGGCAGGAUUCGGUGGCGCGAUAGCGCCAACGUCCUCAACCUCCAAUGCAUCCCACCACAUGAUGAUGCCUGAACAGCCUUGGUUUUUUG [C53A G120C] — higher, 0.974
- GACCAAUCUGCUCUCAGAGCUCGAGAACAUCUUCGGAUGCAGAGGAAGCAGGCUUCGGUGGCGCGAUAGCGCCAACGUCCUCAACCUCCAAUGCAUCCCACAACAUGAUGAUGCCUGAAGAGCCUUGGUUUUUUG [C12U G47A C102A] — within 0.2 log units, -2.63
- GACCAAUCUGCCCUCAGAGCUCGAGAACAUCUUCGGAUGCAGAGGAGGCAGGCUUCGGUGGCGCGAUAGCGCCGACGUCCUCAACCUCCAAUGCAUCCCACCACAUGAUGAUGCCUGAAAAGCCUUGGUUUUUUG [A74G G120A] — higher, 1.08
- GACCAAUCUGCCCUCAGAGCUCGAGAACAUCUUCGGAUGCAGAGGAUGCAGGCUUCGGUGGCGCGAUAGCGCCAACGUCCUCAACCUCCAAUGCAUCCCACCACAUGAUGAUGCCUGAACAGCCUUGGUUUUUUG [G47U G120C] — higher, -0.748
